Data on 3 molecules can be found in patent publication US20220195067A1 (LAMKAP BIO BETA, published 2022).

By Kd is commonly meant the equilibrium constant for the complex coming apart. For orientation: EC50 means the concentration needed to bring the measured effect to its halfway point. Read a low EC50 as higher potency in that assay.

Experiment [1] has as its target T1, recombinant human CEACAM5 Extra Cellular Domain (ECD) soluble protein (human, UniProt P06731 35-685, biotinylated in the competition ELISA of Example 4).
T1 construct: extracellular domain; also called rec. hCEACAM5; recombinant soluble human CEACAM5; not shown: C-terminal Avitag and hexa-histidine tag, or a human Fc or a mouse Fc region; which construct stood in each assay is not
T1 sequence (looked up): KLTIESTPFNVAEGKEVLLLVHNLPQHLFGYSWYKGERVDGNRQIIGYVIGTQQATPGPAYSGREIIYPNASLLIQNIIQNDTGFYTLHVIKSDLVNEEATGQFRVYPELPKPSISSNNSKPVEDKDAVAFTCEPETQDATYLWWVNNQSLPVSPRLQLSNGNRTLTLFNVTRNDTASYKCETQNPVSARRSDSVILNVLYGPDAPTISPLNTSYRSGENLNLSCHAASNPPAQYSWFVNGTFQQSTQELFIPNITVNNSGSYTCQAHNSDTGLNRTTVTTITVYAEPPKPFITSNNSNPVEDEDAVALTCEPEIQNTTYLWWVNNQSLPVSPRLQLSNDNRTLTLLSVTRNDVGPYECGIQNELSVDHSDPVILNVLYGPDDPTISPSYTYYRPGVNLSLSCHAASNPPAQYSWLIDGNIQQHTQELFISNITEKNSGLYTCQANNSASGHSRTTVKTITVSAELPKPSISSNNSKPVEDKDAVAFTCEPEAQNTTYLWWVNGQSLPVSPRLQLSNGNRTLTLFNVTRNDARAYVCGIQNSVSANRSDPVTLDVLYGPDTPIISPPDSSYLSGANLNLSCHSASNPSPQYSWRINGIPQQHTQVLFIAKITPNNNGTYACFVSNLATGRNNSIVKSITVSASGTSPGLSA
The experiment is described as follows: BLI (Octet), antibody on Protein A biosensor, soluble CEACAM5 ECD as analyte. How it is done: The affinity of the anti-human CEACAM5 arm of the CD47×CEACAM5 bispecific antibodies of the invention for recombinant soluble human CEACAM5 was determined using the Bio-Layer Interferometry (BLI) technology. An OctetRED96 instrument and Protein A biosensors were used (Sartorius). The measurement was performed at 30° C. After hydration, pre-conditioning and a baseline step in Kinetic buffer (PBS, 0.002% Tween 20, 0.01% BSA, Kathon; Sartorius), biosensors were loaded for 5 min with the κλ body at 0.5 μg/mL in Kinetic buffer. Then, biosensors were dipped into a serial dilution of recombinant human CEACAM5 Extra Cellular Domain (ECD) soluble protein (produced in house), starting at 50 nM with a 2× dilution factor. The association and dissociation phases were monitored for 600 seconds each. Biosensors were regenerated using 10 mM glycine pH 1.7. A standard acquisition rate was applied (5.0 Hz, averaging by 20). Curves were processed with a reference well subtraction, a Y alignment on the baseline, without interstep correction. The affinity was measured applying a 1:1 global fitting model on the full association and dissociation steps. The binding affinity (KD) of the bispecific antibodies of the invention to recombinant human CD47 was determined by the same experimental procedure.
On the technique in general: BLI is a label-free optical method that tracks binding on a fibre tip over time.

Experiment [2] concerns the target T2, human CEACAM5 on CEACAM5-expressing cancer cell lines (human, UniProt P06731 35-685).
T2 construct: whole, on cells; also called CEACAM5 on SK-CO-1, MKN-45, HPAF-II, SNU-C1, Ls174T, LoVo cells
T2 sequence (looked up): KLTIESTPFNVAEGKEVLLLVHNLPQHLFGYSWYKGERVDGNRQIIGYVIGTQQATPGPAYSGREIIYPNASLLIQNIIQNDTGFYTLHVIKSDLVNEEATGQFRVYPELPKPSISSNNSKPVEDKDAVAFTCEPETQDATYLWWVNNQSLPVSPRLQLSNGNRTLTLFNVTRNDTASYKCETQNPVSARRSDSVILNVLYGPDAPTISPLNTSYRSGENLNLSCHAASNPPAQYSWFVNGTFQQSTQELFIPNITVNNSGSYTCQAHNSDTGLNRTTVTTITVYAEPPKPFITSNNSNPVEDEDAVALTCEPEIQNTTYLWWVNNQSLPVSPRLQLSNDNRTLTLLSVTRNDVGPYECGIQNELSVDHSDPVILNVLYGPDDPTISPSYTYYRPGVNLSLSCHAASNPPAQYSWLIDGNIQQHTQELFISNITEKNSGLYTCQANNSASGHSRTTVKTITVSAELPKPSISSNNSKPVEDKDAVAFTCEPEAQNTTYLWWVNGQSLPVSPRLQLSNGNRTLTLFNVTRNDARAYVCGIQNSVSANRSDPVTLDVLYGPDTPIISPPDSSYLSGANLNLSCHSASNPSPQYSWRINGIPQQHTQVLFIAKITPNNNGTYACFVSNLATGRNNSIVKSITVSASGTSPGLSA
The experiment is described as follows: flow cytometry on MKN-45 cells (carry CEACAM5 and CD47), PE anti-human IgG Fc. The protocol:
(§1) The binding of CD47×CEACAM5 bispecific antibodies was tested on CEACAM5-expressing human gastric adenocarcinoma cells (e.g. MKN-45), on CEACAM5-expressing human colorectal cancer cells (SK-CO-1, SNU-C1, Ls174T, and LoVo), and on CEACAM5-expressing pancreatic adenocarcinoma cells (HPAF-II).
(§2) Cells were harvested, counted, checked for viability and resuspended at 3×10⁶ cells/ml in FACS buffer (PBS 2% BSA, 0.1% NaN3). 100 μl of the cell suspension was distributed in V-bottom 96-well plates (3×10⁵ cells/well). The supernatant was removed by centrifugation 3 minutes at 4° C., 1300 rpm. Increasing concentrations of the antibody according to the invention were then added into the wells and incubated for 15 minutes at 4° C. Cells were washed twice with cold FACS buffer and re-incubated for further 15 minutes at 4° C. with the PE (R-phycoerythrin)-conjugated mouse anti-human IgG Fc secondary antibody (SouthernBiotech, pre-diluted 1:100 in FACS buffer). Cells were washed twice with cold FACS buffer and resuspended in 300 μl FACS buffer with 1:15000-diluted SytoxBlue (Life Technologies). Fluorescence, specifically mean fluorescence […] (MFI), was determined using a Cytoflex […] flow cytometer. Binding curves and […] and Emax values were obtained and calculated using GraphPad Prism7 software.
(In general: A flow cytometer gives signals particle by particle.)

For experiment [3], the target named is T2, human CEACAM5 on CEACAM5-expressing …. Put plainly: flow cytometry on SNU-C1 cells (carry CEACAM5 and CD47), PE anti-human IgG Fc. The protocol: as §1, §2
Experiment [4] has the same target. The experiment is described as follows: flow cytometry on HPAF-II cells (carry CEACAM5 and CD47), PE anti-human IgG Fc. How it is done:
as §1, §2

Experiment [5] shares this target. Put plainly: flow cytometry on SK-CO-1 cells (carry CEACAM5 and CD47), PE anti-human IgG Fc. The protocol: as §1, §2

B1: K2AC84 (bispecific antibody, human IgG1, kappa, lambda)
heavy: not shown
light 1: QSVLTQPPSVSAAPGQKVTISCSGSSSNIGIGLVSWYQQLPGTAPKLLIYNVNTRPSGIPDRFSGSKSGTSATLGITGLQTGDEADYYCGTWDFSYRVDFGGGTKLTVLGQPKAAPSVTLFPPSSEELQANKATLVCLISDFYPGAVTVAWKADSSPVKAGVETTTPSKQSNNKYAASSYLSLTPEQWKSHRSYSCQVTHEGSTVEKTVAPTECS
light 2: not shown
notes: Kappa-lambda body; also called CD47xCEACAM5 bispecific antibody K2AC84; AC84 (CEACAM5 arm)
B1: in experiment [1], the Kd worked out at 2.63 nM. The EC50 came to 7.3 nM in experiment [2], 2.47 nM in experiment [3], 8.7 nM in experiment [4] and 12 nM in experiment [5]. Moreover, the “Emax (MFI)” value in experiment [2] is 1.52e+06 MFI; in experiment [3], 370000 MFI; in experiment [4] it was 1.27e+06 MFI; in experiment [5], 1e+06 MFI.

B2: K2AC22 (bispecific antibody, human IgG1, kappa, lambda)
heavy: not shown
light 1: QSVLTQPPSVSAAPGQKVTISCSGSSSNIANGIVSWYQQLPGTAPKLLIYFDNLRPSGIPDRFSGSKSGTSATLGITGLQTGDEADYYCGTWDFSYGIVFGGGTKLTVLGQPKAAPSVTLFPPSSEELQANKATLVCLISDFYPGAVTVAWKADSSPVKAGVETTTPSKQSNNKYAASSYLSLTPEQWKSHRSYSCQVTHEGSTVEKTVAPTECS
light 2: not shown
notes: Kappa-lambda body, human IgG1, one arm for CEACAM5 and one for CD47; comparison antibody from WO2019234576; also called state of the art bispecific CEAxCD47 antibody K2AC22; CD47xCEACAM5 bispecific antibody K2AC22
Take B2: in experiment [1], the Kd was determined as 120 nM. Moreover, the EC50 stood at 21.3 nM in experiment [2], 10.7 nM in experiment [3], 19.3 nM in experiment [4] and 24 nM in experiment [5]. Further, the “Emax (MFI)” value in experiment [2] came to 1.16e+06 MFI; in experiment [3], 240000 MFI; in experiment [4], 670000 MFI; in experiment [5], 520000 MFI.

B3: K2AC100 (bispecific antibody, human IgG1, kappa, lambda)
heavy: not shown
light 1: QSVLTQPPSVSAAPGQKVTISCSGSSSNIGYGLVSWYQQLPGTAPKLLIYNGNIRPSGIPDRFSGSKSGTSATLGITGLQTGDEADYYCGTWDFSYRVDFGGGTKLTVLGQPKAAPSVTLFPPSSEELQANKATLVCLISDFYPGAVTVAWKADSSPVKAGVETTTPSKQSNNKYAASSYLSLTPEQWKSHRSYSCQVTHEGSTVEKTVAPTECS
light 2: not shown
notes: Kappa-lambda body; also called CD47xCEACAM5 bispecific antibody K2AC100; AC100 (CEACAM5 arm)
As to B3, the Kd in experiment [1] stood at 4.8 nM. Moreover, the EC50 in experiment [2] was 8.7 nM; in experiment [3] it was 3.27 nM; in experiment [4], 8 nM; in experiment [5], 14.7 nM. In addition, the “Emax (MFI)” value in experiment [2] came out at 1.3e+06 MFI; in experiment [3], 300000 MFI; in experiment [4], 1.1e+06 MFI; in experiment [5], 900000 MFI.
